According to the DeepSol protein solubility set:

Test: soluble on expression in E. coli; label from the status in PepcDB or PDB records

Row | Sequence | soluble on expression in E. coli
1 | MKDLIELFWLRYTELQSAVGKNESDKIAVLERELELLLERIVGRKTESSEDIREQFRFAIDLLNHEAEDLGCVQRNSELLRTLVDRYVGMPLKAKVVGDEDEDTLAWHHRHLILDEDMLNDLDEPVVIVSPGYRVSFANALDAFQRNAPEGLIGCHIAELVGVHRFQNILREKLDNCFKGDTSKYTYAEDENGRTVVKSLEMSPCYSSAYKLVGAMVVIREIADRRRRAAG | not soluble
2 | MQVISPSSPAPRFAGKERFSEVYGELNDDFGSKLKISSKEEENRDDDSWWNQNGTDKDDEGREEDFSFASVNADNSPITADEAFEDGQIRPVYPLFNRNIFFDDPEEKTLRSPLKKLFVESTTTEEEEEESDTVGPYCSWTNRTVEQASPETCRKSNSTGFSKLWRFRDLVLRSNSDGKDAFVFLSNGSSSTSSTSSTAARLSGVVKSSEKGKEKTKTDKKKDKMRTKSAHEKLYMRNRAMREEGKRRSYLPYKHVGFFTNVNGLTRNVHPY | soluble
3 | MLILSEQEIQRLYTMEEAISDVKEILRQKQAGNVNTPERTVLSFPHYDASILYMPSVKTGAAAVKVVSIFPHNPPLGKPTTQGVIILTDTKTEEHRMLCNATYLTRLRTGALSAIAADYLAKREASRLAVIGTGAMAREQVAGMLEVRGIEHIFLYNRTRSKAERFALEGW | not soluble
4 | GHMAGNPPDPNAASTGTNPSPQAAGDISPEMMPETANIKLGYIPIVEAAPLIIAQEKGFFAKYGMTGVEVSKQANWASARDNVTIGSQGGGIDGGQWQMPMPHLITEGIITNGNKVPMYVLAQLITQGNGIAVAPMHEGKGVNLDITKAADYIKGFNKTNGRKFKAAHTFPNVNQDFWIRYWFAAGGVDPDTDIDLLAVPPAETVQGMRNGTMDAFSTGDPWPYRIVTENIGYMAGLTAQIWPYHPEEYLAIRADWVDKNPKATKALLKGIMEAQQWIDDPKNRPEVVQIVSGRNYFNVPTTILESPFKGQYTMGDGQPAIDDFQKGPLYWKDGIGNVSYPYKSHDLWFLTESIRWGFHKNAIPDLDTAQKIIDKVNREDLWREAATEAGFTADIPSSTSRGVETFFDGITFDPANPSAYLQSLAIKKV | soluble
5 | MVESQFEQDSQISTDSPLVLVKAAEKTSAIQQLLDYISNYQMISSNSIPIKSMDKIMMLKLDDIILVDVNQTTLKIYTLTGVFTTTETLVHFANRLNKSNFIQISKHALINLDHLESLSDSFSGNMMAKLSSNIKSSVSRKYVKGLMTQLGI | not soluble
6 | MGHHHHHHGGHMSLSTKAKQQSSQQMTRGFEPYQETKGEEYMSERMRAHFTAILNKWKQELMEEVDRTVHHMQDEAANFPDPADRASQEEEFSLELRARDRERKLIKKIDETLQLIEDEEYGWCDSCGVEIGIRRLEARPTATLCIDCKTLAEIREKQLGSEGGS | soluble
7 | MCNDTATPQLEELVTTVANQLMTVDAATSAEVSQRVLAYLVEQLGVDVSFLRHNDRDRRATRLVAEWPPRLNIPDPDPLRLIYFADADPVFALCEHAKEPLVFRPEPATEDYQRLIEEARGVPVTSAAAVPLVSGEITTGLLGFIKFGDRKWLEHHHHHH | not soluble
8 | MAHHHHHHMDVEHFIASLPPRTSVCGLHSVLSHASVHSLDSLGSTETPMLLTAQNFSFMSSGGDGDDNIGNAASTDSRATGAHGSGSNGSSHSGHHPTSPSPCGANASPFISKRLKYVIRSVALDHEECGGDSLSSRIASSYIGSSMPATNSQTRRRSERHVTFALEPEVLDARPRFSAYSRTVELLEQICLDKQSPWNALSLLQSALEERRGQLAQLRGQWDGALTGEAPTLTSSVTPKPCTITTSSGGGAVCHSRDKTTVPSPKSFPSATTSTLMTKGKSSRYSKVKPKACTTCSAM | not soluble
9 | MGGGKYETQMCVIIIEDIFGKIVAKVMETILKESCQLSTLFYKLKGQISNTLIRKSVSTLINFGFVTFHLDTNNRTTYVADSDQIQHVISSPRACLIAKTLYGPAAESICVELISQGRLTVSETIRRIQATDETAVFSDIKKSFEELAAAHFLIRVPSVESEIHGCPQFVTNFDPFAISTNIMEKKEGTSTSDSTSNNRKRKADSTPEDGDAGQYWRINWIRFNGYLRDELIIDYLIGGGSKGTMTNLNVKKEETIEDPQGDRTQYITQNVAHLMFKINETRAKPMSMESITASLTDLQRLVKENGLNLAKPDIELACQILVDESDGIIRKLGESNGGIFIVDIRRAIRQICRHHCESLIREQFEGRAIRVMRLLENRHYLDEEQVEKLSMMSGKEAREMLYALVEEGYVFNKPVGRSNDFQPARTFYLYYVDLPRTIRGLVEYTCKLVRNLIVRQRHERTENKSVLDKDANVQPIIENIRSSEQLDEASKLAQIAEVEEMYLPGPDRAQLNRFRKAQATLLAAQDQSIRVLLSFKLFLASGEN | not soluble
10 | MGSDKIHHHHHHMSSIVLAVGNGKTLFGGSGVAPDADLVRFVDPESPIINAFDLCALRGDGIFEATTVWRGFPVSLENHLKRLANSARLVDMPEPNIPALTRAVQLVIDQYDDPEPGPMLRIIVSRGLDPDTGVGKAADRTPTVYIFLDAKGTLHSLEPITMASMTRGYPSDITARAPWLLNGAKTLSYAFNCAVHRECARRGVGDAILFTEDGYTMECPNSSIVARYGDTFVTPDPRIGILNGTSQREMFAWALEEGKKAEYRKLPIAELREADSLYMTHGGWSIPISAIDGRALAVDAAEIQAINDAIHSGRTHEDALKIGPTGDYE | not soluble
11 | MLTLIQGKKIVNHLRSRLAFEYNGQLIKILSKNIVAVGSLRREEKMLNDVDLLIIVPEKKLLKHVLPNIRIKGLSFSVKVCGERKCVLFIEWEKKTYQLDLFTALAEEKPYAIFHFTGPVSYLIRIRAALKKKNYKLNQYGLFKNQTLVPLKITTEKELIKELGFTYRIPKKRL | soluble
12 | LTGFQVGPMLQYQTGFHGIVLDFSLLYVERGIKLTNTSNRRSADIKTQSIDIPIELKWEMGMSNNFDLFLGVGPSFSFLVDKDNWGRKLAHIAVDVIDKDLPSMGWRSTEVGLNLGGGVKIVNHLMVSCYYNIGLTQSAKHNIGGNKHDAIDQIFDGDVFESKNRYWQLSLAYVF | not soluble
13 | DGYHLLQELGAIELAGDGEAAEAGGGGAAFRLTRTGQELAKLPVDPRIGRMILAAREQQCLAEMLIIAAALSVQDPRDRPMAEREAAESAHAKFADDKSEFLSFL | not soluble
14 | MIDEWPVPTAAAAVIGPSGVLATHGDDAKPFALASVTKLLVARAAQVAIEEGVVELDTPAGPDGSTVRHLLAHTSGVAMNSADTVAQVGQRRVYSNFGFGLLAHAIEDAAEIEFGRYLTEAVFEPLGMSTSKLLGGADAAGFGVTSTVSDLARFAGDLLRPALVSQQMHDEATSVQFPGVNGVLPGFGSQRPNDWGLGFEIRDGKTPHWTGSSNSPRTFGHFGQSGTFLWVDPVADLALLVLTDRDFGDWTYPLWPAISDGVLREIGTHLEHHHHHH | not soluble
15 | MSKFYSEQFKRDAVALYENNENLSLAAAAAELRVNRASLHQWKKELGTGKRTRMIEAKAQAEAASDAERIRALEKENAKLREERDILRKAAKYFAEETSWLEHHHHHH | not soluble
16 | GPGSMLKCSLCYLASKVTAGNAKNQAGHPRRRAKLFHVVPGTPVTPFEKLKEQRRRFGQDRHSRLPEYRPGNNVRMDPNTYTLYATKKGVMTIRESRINPKYKWLDVEPDIQKVYRSRELRRALQEREMASMAVGENSNYRVELDLLLEPDWRERVMHVPKATERFKDPNLFTRGVVNELSPLDRYSYT | not soluble
17 | MGSDKIHHHHHHMDVANKIKVIDRLRLGFAVLVAKSVTFLVRSLRLGAASVLPGSIARRIEPRLLQLLSQQVQNGVIIIAGTNGKTTTALLLCTILENKGYRVCHNSTGANLENGLMTALLDSTNLVGTLDVDYAILEVDENIVPRVLKPLQPRIILCLNLFRDQLDRYGEVDTISKRWTKVISTLPRETVVIPNADDPTLSLLGQQLPQKVLFFGLNEPEHYLEAIPHAVDSIYCPQCGHSLDYQGVYLSHLGDFTCPSCGFTKSQPTLASREWSQILVGLYNKYNTLAATTAAIELGVDETTIRDTINNFQAAFGRAEDLVIDGKRVRILLSKNPVGTNETIRVVTQSTDKTTLLVLNDRTPDGTDVSWIWDVDTEKLVERGGTLVVSGDRVYDMALRLRYSEKSAQSNLNLIVEADLRQAIATALEHTPATETLHILPTYSAMLEVREVLTGRKIL | not soluble
